Test results taken from patent US20040038861A1, “Methods and compositions for normalizing lipid levels in mammalian tissues” (priority 2001, published 2004).

Key:
[1] = target: high affinity CGRP receptor
[2] = target: metabolic amylin receptor
[3] = target: metabolic amylin receptor; remark: listed apart in the source
[4] = target: high affinity CGRP receptor; remark: listed apart in the source
[5] = target: high affinity CGRP receptor; remark: listed apart in the source
[6] = target: metabolic amylin receptor; remark: listed apart in the source
[7] = target: T1, murine ramp 1/C1ins− receptor (Mus musculus, UniProt Q60755+Q9WTJ5); experiment: Radioligand binding and displacement of [3H]amylin in L6 myoblasts co-transfected with murine ramp 1 and C1ins−; conditions: 10 nM radioligand, FIG. 8D
T1 construct: expressed in transfected cells; host or cells: L6 myoblasts (ATCC), transient co-transfection of pcDNA3.1 plasmids
T1 sequence (Q60755 42-496 isoform Q60755-2 limits assumed): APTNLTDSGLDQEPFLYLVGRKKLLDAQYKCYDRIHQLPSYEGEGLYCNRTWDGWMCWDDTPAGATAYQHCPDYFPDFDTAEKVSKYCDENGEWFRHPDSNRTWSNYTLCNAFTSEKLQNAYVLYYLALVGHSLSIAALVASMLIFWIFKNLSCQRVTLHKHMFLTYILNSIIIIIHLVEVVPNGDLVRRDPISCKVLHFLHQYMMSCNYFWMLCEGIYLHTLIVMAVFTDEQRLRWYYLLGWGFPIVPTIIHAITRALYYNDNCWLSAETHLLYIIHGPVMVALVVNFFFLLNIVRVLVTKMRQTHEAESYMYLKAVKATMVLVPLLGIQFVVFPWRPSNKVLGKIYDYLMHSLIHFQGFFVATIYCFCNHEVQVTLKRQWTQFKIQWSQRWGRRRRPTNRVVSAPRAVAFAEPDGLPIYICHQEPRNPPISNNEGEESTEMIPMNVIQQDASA
T1 sequence (Q9WTJ5 27-148 partner): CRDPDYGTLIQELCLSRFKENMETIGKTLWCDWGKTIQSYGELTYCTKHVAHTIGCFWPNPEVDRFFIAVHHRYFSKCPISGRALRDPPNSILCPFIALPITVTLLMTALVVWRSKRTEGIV
Procedure: Transfection of L6 myoblasts and cos-7 cells, and analysis of radioligand binding. L6 myoblasts and cos-7 cells were obtained from ATCC. Both cell lines were cultered in Dulbecco's modified Eagle's medium (DMEM; Gibco/BRL, high glucose) supplemented with 10% fetal calf serum (Gibco/BRL, Gaithersburg, Md.), L-glutamine (2 mM), penicillin (100 U/ml; Sigma), streptomycin (100 mg/ml; Sigma), saline (0.85%), under 5% CO2/95% air at 37° C. The day before transfection, cells were trypsinised and seeded into six-well plates at a density of 2.9×10^5 cells/well in the same medium. For transfection, cells were incubated with a mixture comprising 1 μg each of Qiagen-purified (Qiagen, Valencia, Calif.) plasmids containing C1ins− with either ramp 1 or ramp 3, and Fugene reagent (6 μl; Boehringer Mannheim) in Opti-Mem I medium (Gibco/BRL). The complex was added with serum to cells, which were incubated for a further 48 h.
For binding experiments, radioligand (either alone or together with stated final concentrations of non-radiolabeled ligands) was dissolved in DMEM containing 0.1% BSA (binding buffer) for 1 h before binding experiments were performed. […] Cells were washed twice with this buffer, then incubated with 1 ml of the same plus radioligand for 4 h at room temperature (21° C.).

soleus muscle [8] = experiment: Total glycogen content in isolated incubated soleus muscle; type: cell-based, rat; conditions: isolated rat soleus muscle
Procedure: (§1) Soleus muscle preparation. All experiments were performed according to protocols approved by the Institutional Animal Ethics Committee. 5-6 week-old male Wistar rats (160 g) were kept on a 12:12-h light/dark cycle, and fed and watered ad libitum. Animals were anaesthetised with 50 mg/kg Nembutal (pentobarbitone sodium), then sacrificed by cervical dislocation. Soleus muscles were dissected under oxygenated KHB (118 mM NaCl, 4.75 mM KCl, 1.2 mM MgSO4, 24.8 mM NaHCO3, 1.2 mM KH2PO4, 2.54 mM CaCl2, 10 mM glucose, pH 7.4) and teased into halves, then incubated as described below.
Total glycogen content was measured in muscle strips by lyophilization followed by hydrolysis of glycogen to D-glucose with amyloglucosidase (Sigma) 20 U/100 ml in 0.2 M sodium acetate/acetic acid buffer, pH 4.8, and expressed as μmol ‘glucosyl’ units/g dry muscle weight. Free glucose in supernatant solutions was measured with a glucose/lactate analyzer (YSI 2300STAT, Yellow Springs Corporation) using D-glucose oxidase immobilized enzyme chemistry.
(§2) Data analysis. One way ANOVA, Dunnett's Multiple Comparisons Test, and unpaired Student's t-tests were used to calculate the statistical significance of differences, as appropriate. Dose-response curves were fitted to a sigmoidal dose-response algorithm, as follows: Y=minimum+(maximum−minimum)/([…] log ^(EC50^−X), for 2-DOG-uptake; and by a four parameter logistic model, Y=minimum+(maximum−minimum)/(1+10 log ^(EC50^−X)Hill-Coefficient) for total glycogen and [^14C]glucose incorporation. Calculations were performed using Prism v2.0 (GraphPad Software, San Diego, Calif.) to derive values for half-maximal effective concentration (EC50). Displacement curves derived for competition of bound radioligand with cold ligand in transfected cells were calculated according to a one site competition fit using Prism v2.0.

soleus muscle [9] = experiment: Incorporation of D[14C(U)]glucose into glycogen in isolated incubated soleus muscle; type: cell-based, rat; conditions: isolated rat soleus muscle
Procedure: as §1
Measurement of glycogen metabolism in isolated, incubated soleus muscle. […]. Glycogen was precipitated overnight at −20° C. with 96% ethanol (1.2 ml), followed by centrifugation at 8,000 g (15 min, 4° C.). Pellets were washed twice with the same amount of ethanol then dissolved in water (0.6 ml). Aliquots (0.3 ml) were analyzed for D[^14C(U)] glucose content by liquid scintillation spectrometry.
as §2

ramp 1/C1ins− receptor = target: T2, ramp 1/C1ins− receptor (Mus musculus, UniProt Q60755+Q9WTJ5); experiment: cAMP production in L6 myoblasts co-transfected with ramp 1 and C1ins−; type: cell-based, murine; conditions: 5 μM antagonist; agonist 10 pM to 100 nM
T2 construct: expressed in transfected cells; host or cells: L6 myoblasts (ATCC), transient co-transfection of pcDNA3.1 plasmids
T2 sequence (Q60755 42-496 isoform Q60755-2 limits assumed): T1 sequence (Q60755 42-496 isoform Q60755-2 limits assumed)
T2 sequence (Q9WTJ5 27-148 partner): T1 sequence (Q9WTJ5 27-148 partner)
Procedure: Transfection of L6 myoblasts and cos-7 cells, and analysis of radioligand binding. L6 myoblasts and cos-7 cells were obtained from ATCC. Both cell lines were cultered in Dulbecco's modified Eagle's medium (DMEM; Gibco/BRL, high glucose) supplemented with 10% fetal calf serum (Gibco/BRL, Gaithersburg, Md.), L-glutamine (2 mM), penicillin (100 U/ml; Sigma), streptomycin ([…]; Sigma), saline (0.85%), under 5% CO2/95% air at 37° C. The day before transfection, cells were trypsinised and seeded into six-well plates at a density of 2.9×10^5 cells/well in the same medium. For transfection, cells were incubated with a mixture comprising 1 μg each of Qiagen-purified (Qiagen, Valencia, Calif.) plasmids containing C1ins− with either ramp 1 or ramp 3, and Fugene reagent (6 μl; Boehringer Mannheim) in Opti-Mem I medium (Gibco/BRL). The complex was added with serum to cells, which were incubated for a further 48 h.
Determination of cAMP in cultured cells and soleus muscle strips. cAMP concentration was measured in cells seeded in six-well plates and transfected as described. Following aspiration, cells were incubated for 15 min at room temperature in the presence of stated concentrations of ligands in binding buffer. Isobutylmethylxanthine (Sigma) was added to a final concentration of 0.5 mM together with stated concentrations of peptides, and the reaction terminated by aspiration. Cells were washed with 0.5 ml ice-cold TE buffer (10 mM Tris/HCl, 1 mM EDTA, pH 7.6) and rapidly transferred to eppendorf tubes in 1 ml of the same buffer, then boiled for 5 min. Following centrifugation at 12,000 g for 5 min at 4° C., then cooling on ice, duplicate 50 μl aliquots were analyzed for cAMP using an assay system based on competitive binding (Arnersham Pharmacia) according to the manufacturer's instructions.

soleus muscle [10] = experiment: Glucose transport (2-deoxy-D-glucose uptake) in incubated soleus muscle strips; type: cell-based, rat; conditions: antagonist 1 μM and 10 μM; without antagonist 19.5±3.6
Procedure: as §1
Determination of rates of glucose transport in incubated soleus muscle strips. 4-5 muscle strips were added to each flask, which contained 10 ml DMEM. They were pre-incubated with hormones as indicated for 30 min at 30° C. in a shaking water bath, after which 5 μl of 2[^3H]DOG (0.5 μCi/ml) and 5 μl D[^14C(U)]sorbitol (0.05 μCi/ml) were added, then incubated for another 30 min; RIA grade BSA was added to 0.9% (w/v) to prevent non-specific binding of insulin to flasks. Following incubation, muscle strips were transferred to ice-cold KHB for 5-10 min to remove excess [^3H]DOG and [^14C]sorbitol. They were then blotted, frozen, tendons excised, then lyophilized for a further 48 h. Muscles were then weighed, transferred to scintillation vials and digested with 0.5 ml 1 M NaOH at 60° C. for 1 h. Scintillation fluid (4 ml) was added to each vial, and samples counted in a Beckman liquid scintillation spectrometer, preset to count ^14C and ^3H channels simultaneously. The amount of each isotope present in the samples was determined and used to calculate the extracellular space and the intracellular concentration of [^3H]DOG. The accumulation of intracellular [^3H]DOG, a measure of muscle glucose uptake, was calculated by subtracting the concentration of [^3H]DOG in the extracellular space from the corresponding total muscle [^3H]DOG]; extracellular [^3H]DOG was quantified by measuring the muscle concentration of [^14C]sorbitol.
as §2

soleus muscle [11] = experiment: cAMP content of isolated soleus muscle from normal fed rats; type: cell-based, rat; conditions: normal fed; 10-fold molar excess of antagonist; CGRP alone 6.9±0.8
Procedure: as §1
(§3) For the measurement of cAMP in muscle, isolated soleus strips were incubated with stated concentrations of peptides, then lyophilized and deproteinized. Each strip was placed in 400 μl of 0.5 M HClO4 with 5 mM EDTA (phosphodiesterase inhibitor) and sonicated three times in 20 s bursts. Tubes were heated for 3-5 min in boiling water to coagulate protein, then centrifuged (12,000 g, 4° C., 2 min). Supernatant (300 μl) was taken and the pH adjusted to 7.0 with 75 μl of 2 M NH4OH. The samples were refrigerated (4° C., 2 h) to precipitate proteins, then centrifuged under the same conditions as above and 50 μl taken for cAMP measurement.

soleus muscle [12] = experiment: Lipid metabolites (free fatty acid, glycerol, triglyceride; enzymatic analysis) in isolated soleus muscle from normally fed rats; type: cell-based, rat; conditions: 1 h
soleus muscle [13] = experiment: cAMP content of isolated soleus muscle from high fat-fed rats; type: cell-based, rat
Procedure: as §1, §3

[14] = target: T3, murine ramp 1/C1ins- receptor (murine, UniProt Q60755); experiment: displacement of 20 nM [^3H]amylin, co-transfected L6 myoblasts
T3 sequence 1: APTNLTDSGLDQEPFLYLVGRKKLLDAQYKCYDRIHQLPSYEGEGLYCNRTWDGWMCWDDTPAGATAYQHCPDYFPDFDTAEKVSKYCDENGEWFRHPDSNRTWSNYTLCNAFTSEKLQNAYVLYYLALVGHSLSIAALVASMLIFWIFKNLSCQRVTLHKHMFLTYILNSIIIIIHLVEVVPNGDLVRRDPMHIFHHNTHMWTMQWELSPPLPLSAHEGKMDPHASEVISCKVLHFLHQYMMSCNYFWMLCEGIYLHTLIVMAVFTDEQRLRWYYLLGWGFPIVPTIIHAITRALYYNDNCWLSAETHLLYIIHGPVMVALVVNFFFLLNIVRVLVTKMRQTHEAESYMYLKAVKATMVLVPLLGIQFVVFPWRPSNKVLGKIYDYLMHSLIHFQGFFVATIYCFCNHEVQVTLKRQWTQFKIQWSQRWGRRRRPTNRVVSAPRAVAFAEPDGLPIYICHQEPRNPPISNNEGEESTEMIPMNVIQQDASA
T3 sequence 2: T1 sequence (Q9WTJ5 27-148 partner)
From the text: (§4) Cells were then washed and bound radioactivity determined by liquid scintillation counting. […] Each point represents the mean±SEM of three independent myoblast transfections from an experiment repeated at least twice.

[15] = target: T3, murine ramp 1/C1ins- receptor; experiment: displacement of 20 nM [^3H]amylin, L6 myoblasts co-transfected with murine ramp 1 and C1ins-
From the text: as §4

[16] = target: T3, murine ramp 1/C1ins- receptor; experiment: displacement of 20 nM [^3H]amylin, co-transfected L6 myoblasts; Cheng and Prusoff with Kd […]
From the text: as §4
95% confidence intervals (nM) are bracketed.

## rat CGRP-1 (ligand)
[1]
  free fatty acid content in incubated rat soleus muscle, EC50 of the first phase: 0.00025 nM
[2]
  free fatty acid content in incubated rat soleus muscle, EC50 of the second phase: 45 nM
[3]
  EC50, ^14C-glucose incorporation into glycogen, with insulin (23.7 nM): 0.7 nM
  EC50, ^14C-glucose incorporation into glycogen, without insulin: 3.1 nM
  EC50, total glycogen content, without insulin: 3.2 nM
[4]
  NEFA content of soleus muscle from high fat-fed rats, EC50: 0.0007 nM
  decrease in intramuscular triglyceride of soleus muscle from high fat-fed rats, EC50: 0.00025 nM
[5]
  lipolysis in skeletal muscle, EC50 as summed up in the description: 0.00026 nM

## rat amylin (from UniProt P12969) (ligand)
[3]
  EC50, total glycogen content, without insulin: 8 nM
[6]
  free fatty acid content in incubated rat soleus muscle, EC50: 7.8 nM

## salmon calcitonin
[7]
  specific binding of [3H]radioligand to L6 myoblasts co-transfected with ramp 1 and C1ins−: significant increases in specific binding
Soleus muscle [8]; absence of insulin
  EC50: 1.7 nM
Soleus muscle [8]; human insulin 23.7 nM
  EC50: 0.6 nM
Soleus muscle [9]; absence of insulin
  EC50: 0.1 nM
Soleus muscle [9]; human insulin 23.7 nM
  EC50: 0.9 nM

## rat amylin-(8-37)
Ramp 1/C1ins− receptor
  antagonism of peptide-evoked cAMP production: only a modest decrease in cAMP production
Soleus muscle [10]
  glucose uptake in presence of amylin (10 nM) and insulin (23.7 nM) plus antagonist: no significant effect
Soleus muscle [11]
  cAMP content with 100 nM CGRP plus antagonist: 2.9 ± 0.8 pmol/mg
Soleus muscle [12]; 100 pM antagonist + 1 pM CGRP, CGRP alone 166±18
  free fatty acid concentration in conjunction with 1 pM CGRP: 86±20 nmol/g
Soleus muscle [12]; 10 μM antagonist or maximally stimulating insulin (23.7 nM) + 100 nM CGRP, CGRP alone 334±52
  free fatty acid content in conjunction with 100 nM CGRP: 34 ± 5 nmol/g
Soleus muscle [12]; 10 μM antagonist or maximally stimulating insulin (23.7 nM) + 100 nM amylin, amylin alone 216±26
  free fatty acid content in conjunction with 100 nM amylin: 18.5 ± 6 nmol/g
Soleus muscle [13]; 10-fold molar excess of antagonist
  cAMP content with 100 nM CGRP1 plus antagonist: 4.3 ± 0.8 pmol/mg
Soleus muscle [13]; 10-molar excess of antagonist, CGRP alone 8.6±0.4
  cAMP content with 1 pM CGRP plus antagonist: 4.4±0.4 pmol/mg

## VTHRLAGLLSRSGGVVKDNFVPTNVGSEAF [^8,37rat CGRP-1]
[14]
  fold lower Kl than ^8,37amylin: ~20 fold
[15]
  IC50: 62 nM
[16]
  Ki: 19.5 nM
